Source: the supplement of paper PMC9233669
Variants at the floor of the assay were thinned out.

What was measured:
biotinyl-Phe-oxazolone = assay: self-aminoacylation, catalytic enhancement (BFO) (fold over background); higher = more active; k-Seq, kA / k0A0; sequences stand for … in GGGAAUGGAUCCACAUCUACGAAUUC…UUCACUGCAGACUUGACGAAGCUG
Summary of the method: (§1)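 Catalytic enhancement equals the median kA over the uncatalyzed rate, the latter read from the low-activity peak of a bimodal Gaussian fit. Values of kA came from fitting each sequence's fraction reacted to a pseudo-first-order model, with 1000 bootstraps. Reacted RNA was captured with streptavidin and quantified by triplicate qPCR and Illumina sequencing after 90 minutes at room temperature with 2–1250 μM biotinyl-aminoacyl-oxazolone and 0.43 μM mutagenized RNA pools bearing a 21-nt variable region.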

biotinyl-Ile-oxazolone = assay: self-aminoacylation, catalytic enhancement (BIO) (fold over background); higher = more active; k-Seq, kA / k0A0; sequences stand for … in GGGAAUGGAUCCACAUCUACGAAUUC…UUCACUGCAGACUUGACGAAGCUG
Summary of the method: as §1

biotinyl-Met-oxazolone = assay: self-aminoacylation, catalytic enhancement (BMO) (fold over background); higher = more active; k-Seq, kA / k0A0; sequences stand for … in GGGAAUGGAUCCACAUCUACGAAUUC…UUCACUGCAGACUUGACGAAGCUG
Summary of the method: as §1

biotinyl-Val-oxazolone = assay: self-aminoacylation, catalytic enhancement (BVO) (fold over background); higher = more active; k-Seq, kA / k0A0; sequences stand for … in GGGAAUGGAUCCACAUCUACGAAUUC…UUCACUGCAGACUUGACGAAGCUG
Summary of the method: as §1

biotinyl-Leu-oxazolone = assay: self-aminoacylation, catalytic enhancement (BLO) (fold over background); higher = more active; k-Seq, kA / k0A0; sequences stand for … in GGGAAUGGAUCCACAUCUACGAAUUC…UUCACUGCAGACUUGACGAAGCUG
Summary of the method: as §1

biotinyl-Trp-oxazolone = assay: self-aminoacylation, catalytic enhancement (BWO) (fold over background); higher = more active; k-Seq, kA / k0A0; sequences stand for … in GGGAAUGGAUCCACAUCUACGAAUUC…UUCACUGCAGACUUGACGAAGCUG
Summary of the method: as §1

Sequence | self-aminoacylation (biotinyl-Phe-oxazolone) | self-aminoacylation (biotinyl-Ile-oxazolone) | self-aminoacylation (biotinyl-Met-oxazolone) | self-aminoacylation (biotinyl-Val-oxazolone) | self-aminoacylation (biotinyl-Leu-oxazolone) | self-aminoacylation (biotinyl-Trp-oxazolone)
AUUCACCCAGGUCUUCGGGUG [Fam2.2 aminoacylation ribozyme variant] | 35 | 3.28 | 5.3 | 3.84 | 5.78 | 5.13
CCACAUUUCAGGCAAUCGGUC [Fam1B.1 aminoacylation ribozyme variant] | 1.92 | 2.2 | 1.58 | 1.93 | 2.2 | 1.59
AACUGUGCUAAUAGUCGCAAG [Fam3.1 aminoacylation ribozyme variant] | 2.41 | 2.14 | 1.81 | 1.61 | 2.35 | 2.34
AUAACCCUGGUCAUCGAAUGA [Fam2.1 aminoacylation ribozyme variant] | 0.579 | 0.882 | 1.07 | 0.954 | 0.798 | 0.785
AUUCACCACGGUCAUCGGGUG [Fam2.2 aminoacylation ribozyme variant] | 68.7 | 5.71 | 9.37 | 6.13 | 12.3 | 10
AUUAUCCGGGUCAUCGAGUGA [Fam2.1 aminoacylation ribozyme variant] | 45.7 | 4.14 | 8.26 | 4.04 | 8.08 | 8.13
AUUCCCCUAGGUCAUCGGCUG [Fam2.2 aminoacylation ribozyme variant] | 30.9 | 8.03 | 6.91 | 7.07 | 7.58 | 6.44
GUUACCCUGGUCAUCGGGUGA [Fam2.1 aminoacylation ribozyme variant] | 503 | 30.9 | 89.7 | 36.7 | 92.1 | 90.7
CCACACUUCAAGGAAUCUGUC [Fam1B.1 aminoacylation ribozyme variant] | 0.473 | 0.384 | 0.442 | 0.446 | 0.318 | 0.287
GUUUACCUAGGUCAUCGGGUG [Fam2.2 aminoacylation ribozyme variant] | 201 | 16.2 | 29 | 14.1 | 39.7 | 23.9
AAGUUUGCGAAUCGUCGCAAG [Fam3.1 aminoacylation ribozyme variant] | 1.79 | 1.31 | 1.19 | 1.1 | 0.942 | 1
UUUCACCUAGGUCAUCUGGUG [Fam2.2 aminoacylation ribozyme variant] | 9.3 | 1.76 | 1.88 | 1.86 | 2.22 | 2.5
GUACUUCAAACAAUCGGCCUG [Fam1A.1 aminoacylation ribozyme variant] | 272 | 4.51 | 4.06 | 4.17 | 7.02 | 89.6
GCACACUUCAAGCAGUCGGUC [Fam1B.1 aminoacylation ribozyme variant] | 1.33 | 1.56 | 1.55 | 1.41 | 1.75 | 1.69
AUUCACCUAGGUCUUCGCGUG [Fam2.2 aminoacylation ribozyme variant] | 16.6 | 2.95 | 4.3 | 3.96 | 4.5 | 3.32
AUUCACCCAGGUCAUCGGAUG [Fam2.2 aminoacylation ribozyme variant] | 0.458 | 0.889 | 0.669 | 0.988 | 0.895 | 1.07
AUUAUCCUGGUCAUCGAGUAA [Fam2.1 aminoacylation ribozyme variant] | 2.69 | 1.43 | 2.03 | 1.39 | 1.85 | 1.08
AAGUUUGCUACUAGCCGCAAG [Fam3.1 aminoacylation ribozyme variant] | 1.27 | 0.746 | 0.786 | 0.638 | 0.51 | 0.996
AAAUUUGCUAAUAGUCGCUAG [Fam3.1 aminoacylation ribozyme variant] | 2.81 | 1.73 | 1.22 | 1.58 | 1.38 | 2.84
AUUACCCUGGUCAUCGGGUGA [Fam2.1 aminoacylation ribozyme variant] | 711 | 47 | 122 | 60.9 | 133 | 140
CCAAACUUCAAGCAAUCGGCC [Fam1B.1 aminoacylation ribozyme variant] | 4.84 | 2.38 | 2.21 | 3.04 | 3.45 | 5.38
